In test [1] the target is HRI (UniProt Q9BQI3). In words: co-immunoprecipitation with anti-FLAG antibody. The following applies: reference: wild type BAG3-FLAG; sites S173,S377,S386.
In test [2] the target is BAG3 (UniProt O95817). The test can be described thus: co-immunoprecipitation. Conditions: sites T287.

Here are results for three substances from PMC11466968.

As to “BAG3 (from UniProt O95817) BAG3 3A (S173A/S377A/S386A)”, the “binding against the reference” value in test [1] is “weaker”.

With “CaMKIIβ (from UniProt Q13554) CaMKIIβ T287A”, the “binding against the reference” value in test [2] (reference: wild type CaMKIIβ) is listed as “weaker”. On to “CaMKIIδ (from UniProt Q13557) CaMKIIδ T287A”, for which the “binding against the reference” value in test [2] (reference: wild type CaMKIIδ) was “weaker”.
